The text below walks through data of US6994974 (TRUSTEES OF COLUMBIA UNIVERSITY IN THE CITY OF NEW YORK, dated 2006).

For the assay, the target named is T1, amyloid-beta peptide (1-40), freshly prepared synthetic (UniProt P05067 672-711, 125I label when used as tracer; residue not stated).
T1 construct: domain: amyloid-beta peptide (1-40)
The experiment in a line: radioligand binding to coated microtiter wells.

B1: TrcHis-chloramphenicol acetyltransferase (CAT) fusion protein (other)
chain: MEKKITGYTTVDISQWHRKEHFEAFQSVAQCTYNQTVQLDITAFLKTVKKNKHKFYPAFIHILARLMNAHPEFRMAMKDGELVIWDSVHPCYTVFHEQTETFSSLWSEYHDDFRQFLHIYSQDVACYGENLAYFPKGFIENMFFVSANPWVSFTSFDLNVANMDNFFAPVFTMGKYYTQGDKVLMPLAIQVHHAVCDGFHVGRMLNELQQYCDEWQGGA
notes: also called TrcHis-CAT; not shown: N-terminal TrcHis leader of the Invitrogen control construct
B1: the binding result is recorded as “no binding (tested: 100 nM)”.
